± gives the standard deviation of the averaged measurements.
Each sequence was assayed on ATP (assay: switch fluorescence ratio, 500 uM ATP over buffer (Cy3 cluster intensity, sum of 5 cycles each) (fold (ratio)); higher = stronger signal-on switching upon ATP binding; sequences stand for … in TCGTCGGCAGCGTCAGATGTGTATAAGAGACAGTTTTTTTTTTTTTTTTTTTTTTTTT…TC). Details: aptamer strand: ATP DNA aptamer (quencher-CACCTGGGGGAGTATTGCGGAGGAAGG + anchor), 100 nM annealed; ATP concentration: 500 uM.
Procedure, shortened: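 Per cluster, summed Cy3 intensity from the target cycles was divided by that from the buffer cycles to give the fluorescence ratio, then averaged per switch-domain sequence. Clusters outside 100-1000 RFU were excluded. The Cy3-labelled switching-strand clusters, on a modified Illumina MiSeq flow-cell, were annealed to 100 nM quencher-labelled ATP aptamer and imaged in selection buffer, then after 15 min with 500 uM ATP at 22 °C, for five cycles with NaOH stripping and re-annealing between them.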
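Also: ATP exposure 15 min at 22 °C before imaging.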

| Sequence | switch fluorescence ratio |
| --- | --- |
| GAGGGGTAAT | 0.986 ± 0.012 |
| GAGGGGTAGC | 0.988 ± 0.016 |
| GAGGGTAAAT | 1.02 ± 0.023 |
| GAGGGTATTT | 0.978 ± 0.03 |
| GAGGGTCTGT | 0.9794 ± 0.0048 |
| GAGGGTGGAA | 1.04 ± 0.12 |
| GAGGGTGGCC | 1.03 ± 0.031 |
| GAGGGTGGGA | 0.983 ± 0.031 |
| GAGGGTGTGT | 0.979 ± 0.038 |
| GAGGGTTGCG | 0.973 ± 0.011 |
| GAGGGTTGTG | 0.969 ± 0.031 |
| GAGGTAAAAT | 0.968 ± 0.016 |
| GAGGTAGGGG | 0.968 ± 0.021 |
| GAGGTCATTA | 0.9895 ± 0.0023 |
| GAGGTCATTG | 0.9996 ± 0.0018 |
| GAGGTCTGGG | 0.978 ± 0.015 |
| GAGGTCTGTT | 0.959 ± 0.029 |
| GAGGTGAACA | 1.04 ± 0.067 |
| GAGGTGAGGC | 1.03 ± 0.019 |
| GAGGTGCATG | 0.949 ± 0.024 |
| GAGGTGCCAG | 0.992 ± 0.031 |
| GAGGTTATGC | 0.968 ± 0.04 |
| GAGGTTGG | 1.02 ± 0.017 |
| GAGGTTTCTT | 1.01 ± 0.0048 |
| GAGGTTTGTT | 0.979 ± 0.023 |

| Sequence | switch fluorescence ratio |
| --- | --- |
| GAGGTTTTGT | 1 ± 0.023 |
| GAGTAAACTT | 1.056 ± 0.0082 |
| GAGTAAAGCA | 1.058 ± 0.0031 |
| GAGTAAAGGG | 0.9992 ± 0.0019 |
| GAGTAAGATC | 0.999 ± 0.048 |
| GAGTAAGGGG | 0.969 ± 0.025 |
| GAGTAATGAG | 0.984 ± 0.068 |
| GAGTAATGGT | 1.04 ± 0.02 |
| GAGTACCTGG | 1.01 ± 0.04 |
| GAGTACGTTA | 1.16 ± 0.013 |
| GAGTACTTAG | 1.03 ± 0.011 |
| GAGTAGAAAG | 0.9989 ± 0.0061 |
| GAGTAGGGTT | 0.983 ± 0.018 |
| GAGTATGCGC | 0.996 ± 0.017 |
| GAGTATGTGC | 0.9691 ± 0.0066 |
| GAGTATGTTC | 0.95 ± 0.017 |
| GAGTCCACGT | 1 ± 0.034 |
| GAGTCCATTA | 0.981 ± 0.015 |
| GAGTCCATTG | 1.02 ± 0.026 |
| GAGTCCGTGG | 1.1 ± 0.021 |
| GAGTCGGCCT | 0.975 ± 0.012 |
| GAGTCTAGGA | 1.01 ± 0.039 |
| GAGTCTGAAA | 1.141 ± 0.006 |
| GAGTCTGCGT | 1.08 ± 0.026 |
| GAGTGAGGGA | 1.03 ± 0.024 |

| Sequence | switch fluorescence ratio |
| --- | --- |
| GAGTGAGGTG | 1.01 ± 0.1 |
| GAGTGAGTTA | 0.977 ± 0.032 |
| GAGTGCAGGA | 1.01 ± 0.033 |
| GAGTGGAGGT | 0.985 ± 0.01 |
| GAGTGGGAGC | 0.997 ± 0.066 |
| GAGTGGGGAT | 1.02 ± 0.021 |
| GAGTGGGTTG | 0.982 ± 0.0092 |
| GAGTGGTGTT | 0.983 ± 0.049 |
| GAGTGGTTTA | 0.9913 ± 0.0096 |
| GAGTGGTTTT | 0.991 ± 0.063 |
| GAGTGTAAGT | 0.979 ± 0.01 |
| GAGTGTGGGG | 0.96 ± 0.03 |
| GAGTGTTTGG | 0.949 ± 0.034 |
| GAGTTAATGC | 1.01 ± 0.049 |
| GAGTTAATTT | 0.989 ± 0.017 |
| GAGTTACAGG | 1.04 ± 0.022 |
| GAGTTAGTGC | 0.982 ± 0.039 |
| GAGTTAGTGG | 1.01 ± 0.041 |
| GAGTTCCCGG | 1 ± 0.011 |
| GAGTTCGTTT | 1.02 ± 0.011 |
| GAGTTCTAGG | 0.991 ± 0.038 |
| GAGTTGCGCG | 1.01 ± 0.051 |
| GAGTTGGGTG | 1.01 ± 0.032 |
| GAGTTTAAGA | 0.979 ± 0.024 |
| GAGTTTAAGG | 0.9978 ± 0.009 |

| Sequence | switch fluorescence ratio |
| --- | --- |
| GAGTTTAGTC | 1.01 ± 0.013 |
| GAGTTTGGGC | 1.01 ± 0.039 |
| GAGTTTGGTA | 0.96 ± 0.027 |
| GAGTTTGGTT | 0.98 ± 0.063 |
| GAGTTTGTCA | 0.9917 ± 0.0087 |
| GAGTTTTGTG | 0.961 ± 0.015 |
| GAGTTTTTTC | 0.993 ± 0.018 |
| GATAAAAGGA | 1.002 ± 0.0063 |
| GATAAAATGC | 1.02 ± 0.044 |
| GATAACGAGG | 1.05 ± 0.02 |
| GATACACCCG | 1.153 ± 0.0039 |
| GATACTATGT | 1.01 ± 0.0085 |
| GATACTGATA | 1.032 ± 0.0098 |
| GATACTTGGG | 0.989 ± 0.035 |
| GATAGAAGGA | 1.02 ± 0.033 |
| GATAGAGGGG | 0.984 ± 0.028 |
| GATAGCATTT | 1.04 ± 0.039 |
| GATAGCCCGT | 0.99 ± 0.021 |
| GATAGCCTGT | 1.01 ± 0.027 |
| GATAGCGCAG | 1.01 ± 0.063 |
| GATAGGACGC | 1.05 ± 0.02 |
| GATAGGAGCC | 0.9977 ± 0.002 |
| GATAGGCAAA | 1.017 ± 0.0051 |
| GATAGGGGGC | 1.13 ± 0.28 |
| GATAGGGGGG | 1 ± 0.03 |

Reference: the supplement of paper PMC10126150
